Reference: patent publication US20260184778A1 (REGENECORE BIOTECH, published 2026)

Experiments:
Assay in all cases: cell-based or functional assay
IL-5 = IL-5 (human, UniProt P05113 20-134)
IL-4Rα [1] = biological target: T1, IL-4Rα (human, UniProt P24394 26-232, limits assumed)
IL-4Rα [2] = biological target: T1, IL-4Rα; remark: listed apart in the source

IL-5, sequence (P05113 20-134 limits assumed): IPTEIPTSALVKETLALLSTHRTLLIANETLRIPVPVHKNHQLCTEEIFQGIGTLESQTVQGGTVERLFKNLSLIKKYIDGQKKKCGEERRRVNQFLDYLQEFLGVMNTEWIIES

hIgG (antibody)
EC50 (nM), neutralizing IL-5-induced TF-1 cell proliferation (control) (IL-5): 0.108 nM

B1: reslizumab (Tab made by the applicant) (antibody, V domains shown)
VH: EVQLVESGGGLVQPGGSLRLSCAVSGLSLTSNSVNWIRQAPGKGLEWVGLIWSNGDTDYNSAIKSRFTISRDTSKSTVYLQMNSLRAEDTAVYYCAREYYGYFDYWGQGTLVTVSS
VL: DIQMTQSPSSLSASVGDRVTITCLASEGISSYLAWYQQKPGKAPKLLIYGANSLQTGVPSRFSGSGSATDYTLTISSLQPEDFATYYCQQSYKFPNTFGQGTKVEVK
EC50 (nM), neutralizing IL-5-induced TF-1 cell proliferation (IL-5): 0.122 nM

B2: dupilumab (Tab made by the applicant) (antibody, V domains shown)
VH: EVQLVESGGGLEQPGGSLRLSCAGSGFTFRDYAMTWVRQAPGKGLEWVSSISGSGGNTYYADSVKGRFTISRDNSKNTLYLQMNSLRAEDTAVYYCAKDRLSITIRPRYYGLDVWGQGTTVTVSS
VL: DIVMTQSPLSLPVTPGEPASISCRSSQSLLYSIGYNYLDWYLQKSGQSPQLLIYLGSNRASGVPDRFSGSGSGTDFTLKISRVEAEDVGFYYCMQALQTPYTFGQGTKLEIKR
EC50(nM), neutralizing IL-13-induced TF-1 proliferation (IL-4Rα [1]): 0.178 nM | EC50 (nM), neutralizing IL-4-induced TF-1 proliferation (IL-4Rα [2]): 0.13 nM
